The target of experiment [1] is T1, human Protein S (human, UniProt P07225 42-676).
T1 construct: also called ProS; ProS1
T1 sequence: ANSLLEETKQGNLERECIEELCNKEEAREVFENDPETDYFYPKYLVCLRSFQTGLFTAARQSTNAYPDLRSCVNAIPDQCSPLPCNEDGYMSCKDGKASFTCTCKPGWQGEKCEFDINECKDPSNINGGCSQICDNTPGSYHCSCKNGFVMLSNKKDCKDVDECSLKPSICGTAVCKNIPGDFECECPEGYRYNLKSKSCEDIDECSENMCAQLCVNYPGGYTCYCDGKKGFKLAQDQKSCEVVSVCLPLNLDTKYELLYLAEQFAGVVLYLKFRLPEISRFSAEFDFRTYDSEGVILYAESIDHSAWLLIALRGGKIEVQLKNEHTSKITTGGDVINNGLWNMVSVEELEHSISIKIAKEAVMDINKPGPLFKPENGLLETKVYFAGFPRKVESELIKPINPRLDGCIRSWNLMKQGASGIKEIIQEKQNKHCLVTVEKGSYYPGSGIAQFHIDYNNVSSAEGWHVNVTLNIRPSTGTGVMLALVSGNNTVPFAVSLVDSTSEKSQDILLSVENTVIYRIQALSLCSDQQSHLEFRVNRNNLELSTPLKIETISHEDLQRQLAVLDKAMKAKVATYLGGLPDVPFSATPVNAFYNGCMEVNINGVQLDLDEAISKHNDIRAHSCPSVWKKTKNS
Kind of experiment: BLI Octet; antibody on anti-human Fc probe; Protein S 7.81-500 nM; 4 mM CaCl2. On the procedure: (§1) Binding characteristics of the Protein S antibodies were also further characterized using Octet. Using the Octet System (Sartorius), the binding of each antibody to both human and cynomolgus monkey (“cyno” in Table 10) Protein S was determined. The human Fc antibodies were immobilized onto anti-human Fc capture probes by placing the probes into 10 μg/ml antibody solution in 10 mg/ml bovine serum albumin, 20 mM Tris pH 7.0, 150 mM NaCl, and 4 mM calcium chloride. […] Next, the probes were placed into buffer and the dissociation rates were measured.

The target in experiment [2] is T2, cynomolgus monkey Protein S (cynomolgus monkey).
T2 construct: also called cyno Protein S
The description is as above. As to the method: as §1

Experiment [3] concerns the target T1, human Protein S. Nature of the experiment: SPR Biacore X100; antibody captured by anti-human IgG (Fc); Protein S 2-128 nM; 5 mM CaCl2; 1:1 fit. On the procedure:
Binding characteristics of the Protein S antibodies were also determined. Binding interaction analysis was obtained by Surface Plasmon Resonance in a Biacore X100 instrument. The human anti-IgG (Fc) antibody was immobilized to the carboxymethylated dextran membrane on the sensor chip surface (CM5) via the free amine method for a contact time of 420 seconds. Human anti-IgG antibody at 25 μg/mL in 0.15 M NaCl was immobilized to 9,785 RU in 10 mM sodium acetate pH 5.0.
Dilution and running buffer were as follows: Hbs−EP+5 mM CaCl₂. Regeneration was obtained by 3 M MgCl₂. Binding constants (ka, kd, and KD) were determined using the Biacore X100 evaluation software, assuming a 1:1 interaction of Protein S and the tested monoclonal antibody under investigation.

B1: Antibody 7 (antibody, V domains shown)
VH: QLQLQESGPGLVKPSETLSLTCTVSGGSISSSSYYWGWIRQPPGKGLEWIGNIYYSGNTYYNPSLKSRVTISVDTSKNQFSLKLSSMTAADTAVYYCARCSGYGYSSGRSYFDYWGQETLVTVSS
VL: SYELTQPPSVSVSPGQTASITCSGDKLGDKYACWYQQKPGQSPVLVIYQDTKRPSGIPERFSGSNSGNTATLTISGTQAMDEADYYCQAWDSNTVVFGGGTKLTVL
notes: Same variable regions as Antibody 19
In the case of B1, the Kd was found to be 8.18 nM in the experiment with human Protein S [1], 16.9 nM in experiment [2] and 20 nM in the experiment with human Protein S [3]. The koff with human Protein S [1] is 0.00141 s⁻¹; in experiment [2] it was 0.00232 s⁻¹; with human Protein S [3], 0.005 s⁻¹. Moreover, the values for the kon (in the experiment with human Protein S [1]; in experiment [2]; in the experiment with human Protein S [3]) were 172000 M⁻¹ s⁻¹, 137000 M⁻¹ s⁻¹ and 252000 M⁻¹ s⁻¹, respectively.

B2: Antibody 1 (antibody, V domains shown)
VH: QVQLVQSGAEVKKPGSSVKVSCKVSGGTFSSYSISWVRQAPGQGLEWMGGIIPIFGTTNYAQKFQGRVTITADESTSTAYMDLSSLKSEDTAMYYCEGGRVGADFDYWGQGTLVTVSS
VL: SSDLTQGPAVSVALGQTVRITCQGDSLRNYYASWYQQKPGQAPVPVIYGKNDRPSGIPDRFSGSISGNTASLTITGAQAEDEAHYYCNSRDSSGNHVVFGGGTKLTVL
notes: Same variable regions as Antibody 13
Consider B2, for which, in the experiment with human Protein S [1], the Kd was < 0.001 nM, the koff was < 1e-07 s⁻¹ and the kon came to 169000 M⁻¹ s⁻¹. Moreover, in experiment [2], the Kd is < 0.001 nM, the koff is < 1e-07 s⁻¹ and the kon stood at 139000 M⁻¹ s⁻¹. Also, in the experiment with human Protein S [3], the Kd was 1.33 nM, the koff was 0.00039 s⁻¹ and the kon came to 290000 M⁻¹ s⁻¹.

B3: Antibody 6 (antibody, V domains shown)
VH: QVQLQESGPGLVKPSETLSLTCTVSGGSISNYYWNWIRQPPGKGLEWIGYIYYIGITDYNPSLKSRVTISVDTSKNQFSLKVTSVTAADTAVYYCAALSGDHAFDIWGQGTLVTVSS
VL: not shown
notes: Same variable regions as Antibody 18
In the experiment with human Protein S [1], B3 registered a Kd of 1.47 nM, a koff of 0.000332 s⁻¹ and a kon of 226000 M⁻¹ s⁻¹. Also, in experiment [2], the Kd is 2.81 nM, the koff was determined as 0.000394 s⁻¹ and the kon was 140000 M⁻¹ s⁻¹. In the experiment with human Protein S [3], this molecule came in with a Kd of 5.79 nM, a koff of 0.0016 s⁻¹ and a kon of 280000 M⁻¹ s⁻¹.

B4: Antibody 12 (antibody, V domains shown)
VH: QVQLQESGPGLVKPSETLSLTCGVSGGSISSTNWWSWVRQPPGKGLEWIGEIYQTGSTDYDPSLKSRVTISIDKSKNQFSLKLYSVTAADTAVYYCARRFGELDYWGQGTLVTVSS
VL: EIVMTQSPATLSVSPGERATLSCRASQSVTSNLAWYQQKPGQAPRLLIYDASTRATGIPARFSGSGSGTEFTLTISSLQSEDFAIYYCQQYNNWPTFGQGTRLEIK
notes: Same variable regions as Antibody 24
B4: the Kd came to 7.49 nM with human Protein S [1], 11.3 nM in experiment [2] and 14.4 nM with human Protein S [3]. In addition, the koff in the experiment with human Protein S [1] came out at 0.00232 s⁻¹; in experiment [2] it was 0.00291 s⁻¹; in the experiment with human Protein S [3] it was 0.00947 s⁻¹. Further, the kon with human Protein S [1] was found to be 309000 M⁻¹ s⁻¹; in experiment [2], 258000 M⁻¹ s⁻¹; in the experiment with human Protein S [3], 657000 M⁻¹ s⁻¹.

B5: Antibody 28 (antibody, V domains shown)
VH: QVQLQQSGTELVRPGTSVKMSCKAAGYTFTNHWIGWVKQRPGHGLEWIGDIYPGGGYTNYNEKFKGKASLTADTSSTTAYMQLSSLTSEDSAIYYCSRFGDQNWAWFAYWGQGTLVTVSA
VL: DIQMNQSPSSLSASLGDTITITCRASQNIHMWLSWYQQKPGNIPKLLIFKTSNLHTGVPSRFSGSGSGTDFTLTISSLQPEDIATYYCLQGQSYPFTFGGGTKLEIK
In the experiment with human Protein S [1], B5 registered a Kd of 6.78 nM, a koff of 0.00106 s⁻¹ and a kon of 156000 M⁻¹ s⁻¹. In experiment [2], this molecule displayed a Kd of 9.81 nM, a koff of 0.00106 s⁻¹ and a kon of 109000 M⁻¹ s⁻¹.

B6: Antibody 43 (antibody, V domains shown)
VH: QVQLVQSGAEVKKPGASVKVSCKASGYTFTSYYIHWVRQAPGQGLEWMGVTSPSGRSTSFAQKFQGRVTMTRDTSTSAVYMDLDSLRSEDTAVYYCARGGVTIHLERRGYFDYWGQGTLVIVSS
VL: not shown
notes: Same variable regions as Antibody 44
In the experiment with human Protein S [1], B6 displayed a Kd of 1.99 nM, a koff of 0.000636 s⁻¹ and a kon of 320000 M⁻¹ s⁻¹. Also, in experiment [2], the affinity, expressed as Kd, was 3.88 nM; the koff was 0.00104 s⁻¹; the kon amounted to 268000 M⁻¹ s⁻¹.

B7: Antibody 9 (antibody, V domains shown)
VH: QVQLVQSGAEVKKPGSSVKVSCKASGDTFSNHAINWVRQAPGQGLEWMGGYIPIFGTTNSAQKFRGRVTITADKSTNTAYMALSSLRSEDTAVYYCARGGLAGSHYKNYYYDGMDVWGQGTTVTVSS
VL: not shown
notes: Same variable regions as Antibody 21
Turning to B7, the Kd with human Protein S [1] was 0.533 nM; in experiment [2], 0.266 nM; with human Protein S [3] it was 15.9 nM. Further, the koff stood at 0.000162 s⁻¹ with human Protein S [1], 4.42e-05 s⁻¹ in experiment [2] and 0.00336 s⁻¹ in the experiment with human Protein S [3]. In addition, the results for the kon (with human Protein S [1]; in experiment [2]; in the experiment with human Protein S [3]) were 304000 M⁻¹ s⁻¹, 166000 M⁻¹ s⁻¹ and 212000 M⁻¹ s⁻¹, respectively.

B8: Antibody 27 (antibody, V domains shown)
VH: QVQLQQSGPGLVKPSQTLSLTCAISGDSVSNNNAAWNWIRQSPSRGLEWLGGTYYRSKWYNDYAVSVKSRIIINPVTSKNQFSLQLNSVTPEDTAVYYCARGSSWYRFFDYWGQGTLVTVSS
VL: EIVLTQSPGTLSLSPGERATLSCRASQSVGSSYLAWYQQKPGQAPRLLISGASGRATGIPDRFSGSGSGTDFTLTISRLEPEDFTVYYCQQYGSSPYTFGQGTKLEIK
notes: Same variable regions as Antibody 33
In the experiment with human Protein S [1], B8 gave a Kd of 0.574 nM, a koff of 0.000159 s⁻¹ and a kon of 277000 M⁻¹ s⁻¹. Besides, in experiment [2], binding was put at a Kd of 34.3 nM, the koff was found to be 0.00233 s⁻¹ and the kon came to 67900 M⁻¹ s⁻¹.

B9: Antibody 4 (antibody, V domains shown)
VH: QVQLVESGGGVVQPGRSLRLSCAASGFTFSTYGFHWVRQPPGKGLEWVAVIYYDGINKYYADSVKGRFTISRDNSKNTLFLQMNSLRAEDTAVYYCAESDLDYWGQGTLVTVSS
VL: EIVLTQSPATLSLSPGERATLSCRASQSVSIYLAWYQQKPGQAPRLLIYDASNRATGIPARFSGSGSGTDFTLTISSLEPEDFAVYYCQQRSNWPLTFGPGTKVDIK
notes: Same variable regions as Antibody 16
As for B9, the Kd with human Protein S [1] stood at 2.62 nM; in experiment [2] it was 15.3 nM; in the experiment with human Protein S [3], 4.13 nM. Also, the off-rate (koff) in the experiment with human Protein S [1] was 0.000708 s⁻¹; in experiment [2], 0.00308 s⁻¹; with human Protein S [3], 0.00165 s⁻¹. Also, the results for the kon (in the experiment with human Protein S [1]; in experiment [2]; with human Protein S [3]) were 271000 M⁻¹ s⁻¹, 201000 M⁻¹ s⁻¹ and 399000 M⁻¹ s⁻¹, respectively.

B10: Antibody 2 (antibody, V domains shown)
VH: QVQLQESGPGLVKPSQTLSLTCTVSGGSITSDGYHWSWIRQYPGKGLDWIGYIYYTGNTYYNPSLKSRVTISVGTSQNQFSLKLISVTAADTAVYYCARRLSTGPYFDYWGQGTLVTVSS
VL: QSALTQPASVSGSPGQSITISCTGTSSDVGGYEFVSWYQHHPGKAPKLMIYDVSSRPSGVSNRFSGSKSGNTASLTISGLQAEDEADYYCSSYTRSSTVVFGGGARLTVL
notes: Same variable regions as Antibody 14
Consider B10, for which the Kd is < 0.001 nM in the experiment with human Protein S [1], < 0.001 nM in experiment [2] and 1.63 nM in the experiment with human Protein S [3]. For the same molecule, the koff is < 1e-07 s⁻¹ with human Protein S [1], < 1e-07 s⁻¹ in experiment [2] and 0.00056 s⁻¹ with human Protein S [3]. Also, the kon with human Protein S [1] was found to be 207000 M⁻¹ s⁻¹; in experiment [2], 154000 M⁻¹ s⁻¹; with human Protein S [3] it was 346000 M⁻¹ s⁻¹.

B11: Antibody 8 (antibody, V domains shown)
VH: QVQLQESGPGLVKPSETLSLTCAVSGYSISSGYYWGWIRQPPGKGLDWIGSIYYSGSTYYNPSLKSRVTISVDTSKNQISLKLSSVTAADTAVYYCATTYSDIVTGYYNDAFDIWGQGTMVTVSS
VL: EIVMTQSPATLSVSPGERATLSCRASQRINSNLAWYQQKPGQAPRLLIYGASTRATGIPARFSGSGSGTEFTLTISSLQSEDFAAYYCQQYDNWPLTFGGGTKVEIK
notes: Same variable regions as Antibody 20
Take B11: in the experiment with human Protein S [1], the Kd amounted to 0.514 nM, the koff was found to be 6.7e-05 s⁻¹ and the kon was 131000 M⁻¹ s⁻¹. In addition, in experiment [2], the Kd came to 1.55 nM, the koff was 0.000133 s⁻¹ and the kon was 85800 M⁻¹ s⁻¹. In the experiment with human Protein S [3], the Kd is 6.25 nM, the koff came to 0.000823 s⁻¹ and the kon came to 132000 M⁻¹ s⁻¹.

These data come from patent US20230083243A1 (VEGA THERAPEUTICS, published 2023).
